In the RNAGym collection of RNA variant scans (doi:10.1021/acssynbio.7b00057):

B1: Pistol ribozyme (parent)
chain: GGGUCGUUGUUCCAUAAUCGCGUGGAUAUGGCACGCAAGUUUCUACCGGGCACCGUAAAUGUCCGACUGGAGCCGUUCGGGCGGCUAUAAACAGACCUCAGGCCCGAAGCGUGGCGGCACCUGCCGCCGGUGGUAAAAAAGAUCGGAAGAGCACACGUCU

Variants of: B1
Assay: aptazyme ON/OFF ratio, guanine; higher = stronger switching; co-transcriptional cleavage with and without guanine

Variant	aptazyme ON/OFF ratio
U7G U8A G9C U11C C12A C13G	1.04
U8C G9U U10C U11A C13A	1.13
U10A	1.15
U7A G9A U11A C12A C13U	1.44
U8C U10A U11C C12A	1.08
U7C U8A G9A U11G	1.09
U8C G9A C13G	1.07
U8G G9C U10C U11A C12G C13A	1.02
U7C U8G G9U U11C C12A C13G	1.13
U8A G9C U11C C12A C13U	1.06
U7C G9A U10G U11A C12A	1.32
U8C G9A U10C U11C C12A C13G	1.12
U7A U8C G9A U10C U11G C12U C13U	1.41
U7C U8A G9A C12U C13G	1.19
U7C G9C U10G U11G C12A	1.11
U7C U8G G9A U10A C13U	1.15
U7C G9U U10G C12A C13G	1.13
U7G U10C U11A C13G	1.06
U7G U8G G9C C13U	1.47
U8C G9A U10C U11C C12U C13A	1.1
U7G U8C U10A U11C C12A	1.24

Variant	aptazyme ON/OFF ratio
U7C U8G G9U U10C U11G C12A C13U	1.22
U7A U8G G9C U10A C12U C13U	1.11
U7C U8C G9A U10C C12A	1.12
U8C G9U U10G U11C C12A	1.62
U7C U8C G9A U10C U11G C12A C13U	1.52
U8G G9A U10A C12U	1.27
U7C G9U U10C U11G C12G C13U	1.11
U7A U8C G9U U10C U11C C12A	1.08
U7C U8G U10A U11G	1.35
U7A U8A G9C U10C C12G	1.04
U7G C12U C13A	1.21
U7A U8A U10G U11C C12U C13U	1.47
U7G U8G G9U U11G C12A C13G	1.12
U7G U8G U10C C12U C13G	1.42
U7G U8A G9U U10A U11C C13G	1.02
U7G U8G G9U U10A C12G C13G	1.09
U7A U8C G9A U11G C13A	1.27
U7A U8A G9C U10G U11C C12G C13U	1.22
U7C U8G G9A U10C C12G	1.23
U7A U8C G9U U10G C12G	1.13
U7G U8C G9C U10A	2.18

Variant	aptazyme ON/OFF ratio
U7C U8G G9A U10C U11G C12G C13G	1.27
U8G G9A U11A C12G	1.17
U7G U8A G9A U10A	1.77
U7G G9U U10A U11C C12A C13U	1.46
U8G U10C U11A C12U C13G	1.14
U7C G9U U10C U11G C13U	1.23
U7A G9A U11A C13U	1.06
U7A U8A G9C U11A C12G C13G	1.2
U7C U8C G9A U10A U11A C13U	1.25
G9A U10A U11G C12G C13A	1.42
U7C U8C G9A U10G C12U	1.46
U8A G9A U10G U11G C12A C13G	1.27
U7A U8C G9C C12U	1.06
U7A U8C G9C U11G C13G	1.13
U7G U8A G9A U10A U11G C13G	1.07
U7A U8A G9A U10A U11C C13G	1.06
U8A G9U U11C C12G C13G	1.16
U8A U10C U11G C12U C13G	1.2
U8A U11C C13G	1.08
U7G G9U U10A U11A C12U C13G	1.29
U7C U10A U11C C13A	1.02

Variant	aptazyme ON/OFF ratio
U7G U8C G9A U10A U11C C12G C13U	1.09
U7A U8A G9A U10G U11G C12G C13G	1.55
U7A U8A G9C U10C U11A C12G C13A	1.05
U8G G9A U10G U11G C12G	1.33
U7C U8A G9C U10A U11C C12G C13G	1.29
U8A U10A U11G C13G	1.14
U7G U8G U10C U11C C12U C13G	1.34
U7G U8A G9U U10A U11A C12G C13G	1.09
U8G G9A U10C U11G C12G C13U	1.14
U7G U8A G9U U10C U11C C13A	1.03
U7G U8C U11G C12U	1.28
U7G U8C U10A U11G C12A	1.1
U7A U8A G9A U10C C12A C13U	1
U7A G9A U10C U11G C12U C13A	1.15
U7G U8A G9A U11G C12U C13G	1.2
U7A U8A G9A U11A C12G C13U	1.25
U7C U8C G9A U10C U11G C13A	1.11
U7C U8A U10C C13G	1.22
U7G U8A G9U U10C U11G C12G C13G	1.05
U7A U8G G9A U11G C12U C13U	1.5
U8A G9A U10C U11C C13A	1.03
